Test results as given in patent US8323941B2, “Histone demethylation mediated by the nuclear amine oxidase homolog LSD1” (President and Fellows of Harvard College, priority 2004, dated 2012).

Experiments:
LSD1 [1] = biological target: T1, LSD1 (Homo sapiens, UniProt O60341); assay: LSD1 demethylation assay on free (bulk) histones, Western blotting; format: biochemical; set-up: Full length (1-851aa) and C-terminal deleted (1-427 aa) human LSD1 cDNAs; 6xHis (N); made in house; host or cells: bacteria (IPTG induction); conditions: H3-K4 demethylation, recombinant LSD1
Procedure: (§1) Demethylation assay. LSD1 demethylation activity on free histone or nucleosomal histone was carried out as previously reported (Shi et al., 2004). Briefly, bulk histones or mononucleosomes were incubated with purified His-LSD1 with or without purified His-CoREST, His-CoREST mutants, His-BHC80 and/or GST-HDAC1 in the histone demethylase activity (HDM) assay buffer (50 mM Tris pH8.5, 50 mM KCl, 5 mM MgCl, 0.5% BSA and 5% glycerol) from 10 mins up to 1 hour at 37° C. The demethylase activity of LSD1 under various conditions was evaluated by Western blotting using K4-H3 methylation-specific antibodies.

LSD1 [2] = biological target: T1, LSD1; assay: LSD1 demethylation assay on nucleosomal substrates (mononucleosomes), Western blotting; format: biochemical; set-up: Full length (1-851aa) and C-terminal deleted (1-427 aa) human LSD1 cDNAs; 6xHis (N); made in house; host or cells: bacteria
Procedure: Preparation of mononucleosome. Mononucleosome was made according to a standard protocol (Tagami et al., 2004; Utley et al., 1996). Briefly, nuclear pellet from both TSA-treated or non-treated HeLa cells was homogenized for 60 times with type A pestle to obtain oligo-nucleosomes. The oligo-nucleosomes were then digested with micrococcal nuclease (40 units/mL) for 10 mins at 30° C. The nuclease is inactivated by 5 mM EDTA. Digested materials were spun at 14000 rpm for 3 mins. Resulting supernatant was spun again for additional 3 mins at the same speed. Supernatant from the second spin was subject to 10-25% glycerol gradient sedimentation. The monocleosome-containing fractions were identified by examining aliquots of fractions (treated with proteinase K) on DNA agarose gel. An aliquot of TSA-treated or non TSA-treated mononucleosome, a kind gift from Dr. Yoshihiro Nakatani's Lab in Dana Faber Cancer Institute, Harvard Medical School (Tagami et al., 2004), was used here as a control for the quality of mononucleosome made in our lab.
as §1

Substance: BHC80: PHD domain-containing component of the BRAF35/HDAC2 complex, recombinant
- effect on LSD1 demethylase activity on free histones (LSD1 [1]): significantly dampened
- effect of added protein on ability of recombinant LSD1 to demethylate nucleosomal substrates (LSD1 [2]; bacterially purified protein added to recombinant LSD1): no effect
- demethylase activity of LSD1/CoREST (LSD1 [2]; increasing amounts of BHC80, nucleosomal substrates): proportional decrease
